We go through 20 molecules from patent US20260274985A1 (MYTHIC THERAPEUTICS, published 2026).

For experiment [1], the target named is T1, Human TROP2 Protein, His Tag (human, UniProt P09758 27-274).
T1 construct: Bought protein; also called TACSTD2; not shown: His tag
T1 sequence (looked up): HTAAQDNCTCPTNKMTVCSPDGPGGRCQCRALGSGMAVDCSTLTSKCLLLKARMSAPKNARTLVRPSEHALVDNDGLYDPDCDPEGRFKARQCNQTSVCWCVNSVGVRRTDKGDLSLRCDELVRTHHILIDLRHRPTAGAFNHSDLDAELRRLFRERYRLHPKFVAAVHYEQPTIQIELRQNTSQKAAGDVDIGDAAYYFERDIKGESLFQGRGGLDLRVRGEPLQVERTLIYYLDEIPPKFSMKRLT
Briefly: BLI (Octet).

For experiment [2], the target named is T2, Human TROP2 Protein, His Tag (Acro Biosystems) (human, UniProt P09758 27-274).
T2 construct: Soluble analyte of the Octet assay; also called TACSTD2; not shown: His tag
T2 sequence (looked up): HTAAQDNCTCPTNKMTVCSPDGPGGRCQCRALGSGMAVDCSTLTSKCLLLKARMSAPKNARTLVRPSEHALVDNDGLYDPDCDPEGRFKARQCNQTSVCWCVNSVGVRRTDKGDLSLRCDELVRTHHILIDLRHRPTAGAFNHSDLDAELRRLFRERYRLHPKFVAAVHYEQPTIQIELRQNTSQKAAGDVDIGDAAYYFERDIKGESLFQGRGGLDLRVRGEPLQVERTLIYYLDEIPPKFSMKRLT
Description: BLI (Octet).

B1: MYT11654 (antibody, V domains shown)
VH: QVQLVQSGAEVKKPGASVKVSCKASGYTFTTAGMQWVRQAPGQGLEWMGWINTHSGVHKYAEDFKGRVTISADTSTSTAYLQLSSLKSEDTAVYYCARSGFGSSYWYFDVWGQGTLVTVSS
VL: DIQMTQSPSSLSASVGDRVTITCKASQDVSTAVAWYQQKPGKAPKLLIYSASYRYTGVPSRFSGSGSGTDFTLTISSLQPEDFAVYYCQQHYITPLTFGQGTKLEIK
notes: IgG from supernatant; His at HCV position 58; also called datopotamab variant H2 09
As for B1, the binding result in experiment [1] is reported as “binds”.

B2: MYT13176 (antibody, V domains shown)
VH: QVQLQQSGSELKKPGASVKVSCKASGYTFTNHGMNWVKQAPGQGLKWMGWINTYTGEPTYTDDFKGRFAFSLDTSVSTAYLQISSLKADDTAVYFCARGGFGSSYWYFDVWGQGSLVTVSS
VL: DIQLTQSPSSLSASVGDRVSITCKASQDVSIAVAWYQQKPGKAPKLLIYSHSYRYTGVPDRFSGSGSGTDFTLTISSLQPEDFAVYYCQQHYITPLTFGAGTKVEIK
notes: Sacituzumab HC-LC pairing variant; IgG
Take B2: in experiment [2], the binding result was “binds”.

B3: MYT11661 (antibody, V domains shown)
VH: QVQLVQSGAEVKKPGASVKVSCKASGYTFTTAGMQWVRQAPGQGLEWMGWINTHSGVPKYAEDFHGRVTISADTSTSTAYLQLSSLKSEDTAVYYCARSGFGSSYWYFDVWGQGTLVTVSS
VL: DIQMTQSPSSLSASVGDRVTITCKASQDVSTAVAWYQQKPGKAPKLLIYSASYRYTGVPSRFSGSGSGTDFTLTISSLQPEDFAVYYCQQHYITPLTFGQGTKLEIK
notes: IgG from supernatant; His at HCV position 65; also called datopotamab variant H2 16
As to B3, in experiment [1], the binding result is “binds”.

B4: MYT11655 (antibody, V domains shown)
VH: QVQLVQSGAEVKKPGASVKVSCKASGYTFTTAGMQWVRQAPGQGLEWMGWINTHSGVPHYAEDFKGRVTISADTSTSTAYLQLSSLKSEDTAVYYCARSGFGSSYWYFDVWGQGTLVTVSS
VL: DIQMTQSPSSLSASVGDRVTITCKASQDVSTAVAWYQQKPGKAPKLLIYSASYRYTGVPSRFSGSGSGTDFTLTISSLQPEDFAVYYCQQHYITPLTFGQGTKLEIK
notes: IgG from supernatant; His at HCV position 59; also called datopotamab variant H2 10
In the case of B4, the binding result in experiment [1] is “binds”.

B5: MYT11662 (antibody, V domains shown)
VH: QVQLVQSGAEVKKPGASVKVSCKASGYTFTTAGMQWVRQAPGQGLEWMGWINTHSGVPKYAEDFKHRVTISADTSTSTAYLQLSSLKSEDTAVYYCARSGFGSSYWYFDVWGQGTLVTVSS
VL: DIQMTQSPSSLSASVGDRVTITCKASQDVSTAVAWYQQKPGKAPKLLIYSASYRYTGVPSRFSGSGSGTDFTLTISSLQPEDFAVYYCQQHYITPLTFGQGTKLEIK
notes: IgG from supernatant; His at HCV position 66; also called datopotamab variant H2 17
Take B5: the binding result in experiment [1] is listed as “binds”.

B6: MYT13162 (antibody, V domains shown)
VH: QVQLQQSGSELKKPGASVKVSCKASGYTFTNYGMNWVKQAPGQGLKWMGWINTYTGEPTHTDDFKGRFAFSLDTSVSTAYLQISSLKADDTAVYFCARGGFGSSYWYFDVWGQGSLVTVSS
VL: DIQLTQSPSSLSASVGDRVSITCKASQDVHIAVAWYQQKPGKAPKLLIYSASYRYTGVPDRFSGSGSGTDFTLTISSLQPEDFAVYYCQQHYITPLTFGAGTKVEIK
notes: as for B2
Consider B6, for which the binding result in experiment [2] is given as “binds”.

B7: MYT11660 (antibody, V domains shown)
VH: QVQLVQSGAEVKKPGASVKVSCKASGYTFTTAGMQWVRQAPGQGLEWMGWINTHSGVPKYAEDHKGRVTISADTSTSTAYLQLSSLKSEDTAVYYCARSGFGSSYWYFDVWGQGTLVTVSS
VL: DIQMTQSPSSLSASVGDRVTITCKASQDVSTAVAWYQQKPGKAPKLLIYSASYRYTGVPSRFSGSGSGTDFTLTISSLQPEDFAVYYCQQHYITPLTFGQGTKLEIK
notes: IgG from supernatant; His at HCV position 64; also called datopotamab variant H2 15
As to B7, the binding result in experiment [1] is listed as “binds”.

B8: MYT11656 (antibody, V domains shown)
VH: QVQLVQSGAEVKKPGASVKVSCKASGYTFTTAGMQWVRQAPGQGLEWMGWINTHSGVPKHAEDFKGRVTISADTSTSTAYLQLSSLKSEDTAVYYCARSGFGSSYWYFDVWGQGTLVTVSS
VL: DIQMTQSPSSLSASVGDRVTITCKASQDVSTAVAWYQQKPGKAPKLLIYSASYRYTGVPSRFSGSGSGTDFTLTISSLQPEDFAVYYCQQHYITPLTFGQGTKLEIK
notes: IgG from supernatant; His at HCV position 60; also called datopotamab variant H2 11
Take B8: the binding result in experiment [1] is listed as “binds”.

B9: MYT11667 (antibody, V domains shown)
VH: QVQLVQSGAEVKKPGASVKVSCKASGYTFTTAGMQWVRQAPGQGLEWMGWINTHSGVPKYAEDFKGRVTISADTSTSTAYLQLSSLKSEDTAVYYCARSGHGSSYWYFDVWGQGTLVTVSS
VL: DIQMTQSPSSLSASVGDRVTITCKASQDVSTAVAWYQQKPGKAPKLLIYSASYRYTGVPSRFSGSGSGTDFTLTISSLQPEDFAVYYCQQHYITPLTFGQGTKLEIK
notes: IgG from supernatant; His at HCV position 101; also called datopotamab variant H3 05
With B9, in experiment [1], the binding result is “binds”.

B10: MYT13164 (antibody, V domains shown)
VH: QVQLQQSGSELKKPGASVKVSCKASGYTFTNYGMNWVKQAPGQGLKWMGWINTYTGEPTYTDHFKGRFAFSLDTSVSTAYLQISSLKADDTAVYFCARGGFGSSYWYFDVWGQGSLVTVSS
VL: DIQLTQSPSSLSASVGDRVSITCKASQDVHIAVAWYQQKPGKAPKLLIYSASYRYTGVPDRFSGSGSGTDFTLTISSLQPEDFAVYYCQQHYITPLTFGAGTKVEIK
notes: as for B2
Regarding B10, in experiment [2], the binding result is reported as “binds”.

B11: MYT11664 (antibody, V domains shown)
VH: QVQLVQSGAEVKKPGASVKVSCKASGYTFTTAGMQWVRQAPGQGLEWMGWINTHSGVPKYAEDFKGRVTISADTSTSTAYLQLSSLKSEDTAVYYCAHSGFGSSYWYFDVWGQGTLVTVSS
VL: DIQMTQSPSSLSASVGDRVTITCKASQDVSTAVAWYQQKPGKAPKLLIYSASYRYTGVPSRFSGSGSGTDFTLTISSLQPEDFAVYYCQQHYITPLTFGQGTKLEIK
notes: IgG from supernatant; His at HCV position 98; also called datopotamab variant H3 02
Take B11: the binding result in experiment [1] is listed as “binds”.

B12: MYT11675 (antibody, V domains shown)
VH: QVQLVQSGAEVKKPGASVKVSCKASGYTFTTAGMQWVRQAPGQGLEWMGWINTHSGVPKYAEDFKGRVTISADTSTSTAYLQLSSLKSEDTAVYYCARSGFGSSYWYFHVWGQGTLVTVSS
VL: DIQMTQSPSSLSASVGDRVTITCKASQDVSTAVAWYQQKPGKAPKLLIYSASYRYTGVPSRFSGSGSGTDFTLTISSLQPEDFAVYYCQQHYITPLTFGQGTKLEIK
For the molecule B12, the binding result in experiment [1] is reported as “binds”.

B13: MYT11673 (antibody, V domains shown)
VH: QVQLVQSGAEVKKPGASVKVSCKASGYTFTTAGMQWVRQAPGQGLEWMGWINTHSGVPKYAEDFKGRVTISADTSTSTAYLQLSSLKSEDTAVYYCARSGFGSSYWHFDVWGQGTLVTVSS
VL: DIQMTQSPSSLSASVGDRVTITCKASQDVSTAVAWYQQKPGKAPKLLIYSASYRYTGVPSRFSGSGSGTDFTLTISSLQPEDFAVYYCQQHYITPLTFGQGTKLEIK
notes: IgG from supernatant; also called datopotamab variant H3 11
Consider B13, for which, in experiment [1], the binding result is “binds”.

B14: MYT13165 (antibody, V domains shown)
VH: QVQLQQSGSELKKPGASVKVSCKASGYTFTNYGMNWVKQAPGQGLKWMGWINTYTGEPTYTDDHKGRFAFSLDTSVSTAYLQISSLKADDTAVYFCARGGFGSSYWYFDVWGQGSLVTVSS
VL: DIQLTQSPSSLSASVGDRVSITCKASQDVHIAVAWYQQKPGKAPKLLIYSASYRYTGVPDRFSGSGSGTDFTLTISSLQPEDFAVYYCQQHYITPLTFGAGTKVEIK
notes: as for B2
For the molecule B14, in experiment [2], the binding result is “binds”.

B15: MYT11674 (antibody, V domains shown)
VH: QVQLVQSGAEVKKPGASVKVSCKASGYTFTTAGMQWVRQAPGQGLEWMGWINTHSGVPKYAEDFKGRVTISADTSTSTAYLQLSSLKSEDTAVYYCARSGFGSSYWYHDVWGQGTLVTVSS
VL: DIQMTQSPSSLSASVGDRVTITCKASQDVSTAVAWYQQKPGKAPKLLIYSASYRYTGVPSRFSGSGSGTDFTLTISSLQPEDFAVYYCQQHYITPLTFGQGTKLEIK
notes: IgG from supernatant; also called datopotamab variant H3 12
As for B15, in experiment [1], the binding result was “binds”.

B16: MYT11659 (antibody, V domains shown)
VH: QVQLVQSGAEVKKPGASVKVSCKASGYTFTTAGMQWVRQAPGQGLEWMGWINTHSGVPKYAEHFKGRVTISADTSTSTAYLQLSSLKSEDTAVYYCARSGFGSSYWYFDVWGQGTLVTVSS
VL: DIQMTQSPSSLSASVGDRVTITCKASQDVSTAVAWYQQKPGKAPKLLIYSASYRYTGVPSRFSGSGSGTDFTLTISSLQPEDFAVYYCQQHYITPLTFGQGTKLEIK
notes: IgG from supernatant; His at HCV position 63; also called datopotamab variant H2 14
B16: in experiment [1], the binding result was “binds”.

B17: MYT13163 (antibody, V domains shown)
VH: QVQLQQSGSELKKPGASVKVSCKASGYTFTNYGMNWVKQAPGQGLKWMGWINTYTGEPTYTHDFKGRFAFSLDTSVSTAYLQISSLKADDTAVYFCARGGFGSSYWYFDVWGQGSLVTVSS
VL: DIQLTQSPSSLSASVGDRVSITCKASQDVHIAVAWYQQKPGKAPKLLIYSASYRYTGVPDRFSGSGSGTDFTLTISSLQPEDFAVYYCQQHYITPLTFGAGTKVEIK
notes: as for B2
For B17, in experiment [2], the binding result is “binds”.

B18: MYT13161 (antibody, V domains shown)
VH: QVQLQQSGSELKKPGASVKVSCKASGYTFTNYHMNWVKQAPGQGLKWMGWINTYTGEPTYTDDFKGRFAFSLDTSVSTAYLQISSLKADDTAVYFCARGGFGSSYWYFDVWGQGSLVTVSS
VL: DIQLTQSPSSLSASVGDRVSITCKASQDVHIAVAWYQQKPGKAPKLLIYSASYRYTGVPDRFSGSGSGTDFTLTISSLQPEDFAVYYCQQHYITPLTFGAGTKVEIK
notes: as for B2
Consider B18, for which, in experiment [2], the binding result is given as “binds”.

B19: MYT11657 (antibody, V domains shown)
VH: QVQLVQSGAEVKKPGASVKVSCKASGYTFTTAGMQWVRQAPGQGLEWMGWINTHSGVPKYHEDFKGRVTISADTSTSTAYLQLSSLKSEDTAVYYCARSGFGSSYWYFDVWGQGTLVTVSS
VL: DIQMTQSPSSLSASVGDRVTITCKASQDVSTAVAWYQQKPGKAPKLLIYSASYRYTGVPSRFSGSGSGTDFTLTISSLQPEDFAVYYCQQHYITPLTFGQGTKLEIK
notes: IgG from supernatant; His at HCV position 61; also called datopotamab variant H2 12
Regarding B19, the binding result in experiment [1] is listed as “binds”.

B20: MYT11658 (antibody, V domains shown)
VH: QVQLVQSGAEVKKPGASVKVSCKASGYTFTTAGMQWVRQAPGQGLEWMGWINTHSGVPKYAHDFKGRVTISADTSTSTAYLQLSSLKSEDTAVYYCARSGFGSSYWYFDVWGQGTLVTVSS
VL: DIQMTQSPSSLSASVGDRVTITCKASQDVSTAVAWYQQKPGKAPKLLIYSASYRYTGVPSRFSGSGSGTDFTLTISSLQPEDFAVYYCQQHYITPLTFGQGTKLEIK
notes: IgG from supernatant; His at HCV position 62; also called datopotamab variant H2 13
As for B20, the binding result in experiment [1] is listed as “binds”.
